Results as given in a protein production outcome set (Wang et al. 2014).

Experiment: label from the status in PepcDB records

With “MTLFAEYNSPYLFAIAFVFFIGVLEMISLIFGHFLSGALDAHLDHYDALSSGPAGQALHYLNIGRVPALVVLCLLAGYFGLFGILIQHGGIMLWQAPLSNLLLVPLSIVLSVFAVHYSGKILAPWLPRDESSALREEEFIGGMAIITGHAAVAGTPCEGKFTDKFGQIHYLLLEPEKGKEFKKGDKVLIICRLSATRYLAERTFYV” as the sequence, how does the protein production read?
The protein production was “failed”.

For “MTLGLTPKFVKIFLFVGLMLLSTSLAVIFPLNSVEGLGSGVTKTVLDNGLTVLIKEIPTAPVVSLQVWYRVGSRHEPKGENGIAHQLEHLMFKGTQSRPVQFGQLFYALGSSSNAFTSYDMTAYHHTVRADQLEPLLILEADRLRHTLITPDALESEKRVVISELQGYENSPEYRLSRAVMAALYPKHPYGLPVGGTASDVEQLTLAAVKSFYQQYYRPDNAVVVIAGNVRAARALELVKSTFGAIPQPPEPLISPPLPPPGAVSGQRIRLREPGSAPLLQILVPIPGITHPDQAALDVLDMLLSGGRSSYFYQELMETGQASSAYSYVAALQEGGWFEMGAIASPDQSLETIEQSIGKMLQQLAERPLSLAELQRAKQQLKANFILRNRDIDAQASQLANDETLTGDYRFSDRHLAAIEKVTAADVQRVVQTYFGRDRWIVGEFIPSEFADVELSGRPAVQTTAHNLIGEPVDPQTIAAYLPQGSAQAAPAVKNNGVETFTLENGLRVLLLVDRSTPTVTLAGRIDAGTAYDLLTQPGVANLTAANLLNGTRTKTALTLAQTLEDRGISLEFSAFRDGVDVEGYALASELPTLLATLGEVLQEATFPEAEFKLSQQRYLTALGLEADDPVRWGRRVLQETLYPAHHPLHPFATPESVQAIQRQDLLNFYRAAYRPDRTILTLVGDFDPLAVRSRLKDIFGPWQPPTAPLSLTFPAVSPPPQTLFRNAVIAGKSQAITYLGTPGIDRRHPRFYAAMLMNHILGGDTLASRLGTEIRDRQGLTYGIYSFFTASRQAGPFMIQLQTAPEDTAKAIQATLQLLREARRQGFTAAELEAAKRSLSNTYLVELANVDVVARTLLANASVDLPPQELQQFSDRLQQVSLAEVNQALRELIDPERLVIVTAGPAVSFSP”, which protein production is on record?
The protein production was “failed”.

With “MTLKAGIVGIGMIGSDHLRRLANTVSGVEVVAVCDIVAGRAQAALDKYAIEAKDYNDYHDLINDKDVEVVIITASNEAHADVAVAALNANKYVFCEKPLAVTAADCQRVIEAEQKNGKRMVQIGFMRRYDKGYVQLKNIIDSGEIGQPLMVHGRHYNASTVPEYKTPQAIYETLIHEIDVMHWLLNEDYKTVKVYFPRQSSLVTTLRDPQLVVMETTSGINIVVEVFVNCQYGYDIHCDVTGEKGMAELPTVASAAVRKAAKYSTDILVDWKQRFIDAYDIEFQDFFDRLNAGLPPAGPTSWDGYLAAVTADACVKSQETGNTEIVELPSKPDFYK” as the sequence, how does the protein production read?
The protein production was “not failed”.

For “MTLLRVGGVPEPFNEIFMQAQEGALPSTKLQVEFLGVAGGSGAALEMLAKCELDVAVTLTESAVARTKAAASGLAVHSVYVASPLAWGVAVSSKKTDWTDLNSLDAAVLRGESIRAGFSRRGSGSHLLLSVFASDRGWISTGIQNDILKSFECGSFDGLIQAAVAGDIDMFLWETCFTKECAATRQGLIRLVGEYAPSWPAFVLVCRDDAHVRAAVSELKREIEPLQRKFCTGEGLDILQNKYGFSLESAKLWLSRLQFAEPDEALSAEQWRSVERALELTAGSRSSSR”, which protein production is on record?
Its protein production is “not failed”.

For “MTLNAKGESNQILVDKEVHSTNLLLDIDEKPELFQGLLLSFQHVFAMFGATILVPLILGMPVSVALFASGCGTLIYQVATKFKVPVYLGSSFAYITAMALAMKQMHGDISAAQTGILFVGLIYVVVATVIKFVGNSWVDKILPPIIIGPMIIVIGLGLANSAVTNAGFVAKGDWRKMLVAVVTFLIAAFINTKGKGFIKIIPFLFAIIGGYILSIILGLVDLSPVEKAAWFELPKFYLPFKTGLFHSYKLYFGPEMLAILPISIVTIAENIGDHTVLGQICGRNFLKKPGLNRLLIGDGLATAFSALIGGPAETTYGENTGVIGMTRIASVTVIRNAAFIAIAFSFFGKFTALISTIPSAVLGGMAILLYGVIASNGLKVLIENRVNFAEVRNLIIASSMLVLGLGGAVLDLGALTLSGTALSAIVGIILNLILPKESMKS”, which protein production is on record?
The protein production was “not failed”.

Which protein production does the source give for “MTLNIYTEEWAPISFSVDGKPDGLAVQVVQEIQKRIDNQDPIKVVPWARGWKIITEQPNTVLFTMTRTAERERMFSLIGPVAVGTTNFYALKNSNLKINLEHHHHHH” here?
Its protein production is “not failed”.

For “MTLRTRITLLTAGLLLVAFLVLGFALEGLLRNFLYGSLRTDLKEAANQVVRLLNLGGQALLEAGLPPSLYAEVQLLPEEDPALLAREGGISLQKSPALGSQRLLLQEEAYRELLKRGEVWAYAELPREGHPLRLLVYARKVEVNLSGSVWKGALLVGRPTEDLEATLSQFARIYAGTALFVLLLSLFLARGLVARALEPLEWAARKAEAMSARPEPLPEPETRDEVAALVKALNGMLTRLQEAFEAQTRFLQDASHELRTPITAILGHVGYLLRRTPLTEAQRESLEVVKREAERMGKLVSDLLDLSQSGTWRIRPVPVRVLDLLEEVREEFAKSFDGAILVEAPEDLYVLGDPDRLHQVMANLVSNALKAGARHVWLRAFDLGDKAVVRVEDDGEGIPEEHLPHLFERFYRVDKARDRERGGSGLGLAIVKAILEAHGGEVWVESQVGKGTAFSFSLPASGPPPPPR”, which protein production is on record?
The protein production was “failed”.

For “MTLTALNAISPIDGRYVNKTRALSPYFSEFALTYYRLMVEIKWFESLAANDTIPEVPALDNKARKFLSDLISNFNESEAEKIKEFEKQTNHDVKAVEYYLQDKFQENEQLKSCVAFIHFACTSEDINNLAYALMIKQAIAQVIQPTIAEIMGSITLLGKQHADVAMLSRTHGQPATPTTMGKELVNFVARLKRPQQQLAEVLIPAKFNGAVGNYNAHVAAYPEVDWRKHCANFVTSLGLSFNAYTTQIEPHDGIAEVSQIMVRINNILLDYTQDIWSYISLGYFKQKTIAEEVGSSTMPHKVNPIDFENAEGNLGLSNALFIHFANKLTQSRMQRDLSDSTVLRNLGVAFSYSLIAYHSVAKGNDKLQINKSALQKDLSENWEVLAEAIQTVMRRYNEPNAYEQLKELTRGQMIDAENLKKFIKTLSIPEEAKAELMKLTPETYTGLATQLVKAFS”, which protein production is on record?
Its protein production is “not failed”.

With “MTLTQQKVKFFSKAYHDVKRLYLSAFPPRERFPYFCLLLNSLRSLVTCYAYYDKERFVGFAYIIESKEQVFILFLAVNGSVRSKGYGSMILAQIREYAGRKPLILTIEPVEKDSPNSEQRRQRLSFYERNGYQLTSHYYYEGQERYQILTTEQSIDLERFQKLVKRAVLGLVLITV” as the sequence, how does the protein production read?
The protein production was “failed”.

For “MTLWSVASVLTLAFIFWLNAVMTASPYIVYLSGLKKQSERKNRLVALLLLLASLLYFFLKVGSFAAEGFAGMIDTTYMQFIWTGPVGLFIQLQIAVAIAWIVYSVVKLKRIKWVLYVVAIGLMGWSFLSIGHGSDAVWWGKLALLTHLLVAWVWFGSLNSLRKLATSVPLAKAKAIMERFGVHMSAAVPILLIAGLVMYRSATGRWMPELPLTSYDTVLLAKLVFVALILLVAALHKLKFVPQLNDNAAAKRLKNSITAEMVLAVTIFILASALSSAFSPG”, which protein production is on record?
The protein production was “failed”.

Which protein production does the source give for “MTLYKQLVAGMIAVFILLLISVFTIEFNTTRNSLEQQQRSEVNNTINTVGLALAPYLEKKDTIAVESVINALFDGSSYSIVRLIFLDDGTEILRSYPIQPNNVPAWFTQLNLFEPIHDRRVVTSGWMQLAEVEIVSHPGAAYAQLWKALIRLSIAFLAILVIGMFAVAFILKRSLRPLQLIVNKMEQVANNQFGEPLPRPNTRDLIYVVDGINKMSEQVEKAFKAQAKEAQQLRERAYLDPVSHLGNRAYYMSQLSGWLSESGIGGVAILQAEFIKELYEEKGYEAGDGMVRELADRLKNSITIKDISIARISTYEFGIIMPNMDETELKIVAESIITCVDDINPDPTGMAKANLSLGVVSNKRQSSTTTLLSLLDNALLKRNPILS” here?
Its protein production is “failed”.

For “MTMSPSQDQTENTDMLTEIAILYYQEGATQEEISKKFGLSRAKVGRMLRKAREEGIVEITVKFHPVYSVQLEQKLVEKFNLKRALISLDQPNTNEQRKQVAALVSSYLNNNLQEGMAVAVGQGQNVAAVADHAGIVTQRNARFVSAIGGTHRSGDIINADHICRRLAKKYGGSSETLYAPAYVNDPSLRSAFMEHATIKETLSQARKAEFALVGIGDMDENSHMVKLGFFTPKEFVEARLNDGIVGDIGGFDFFKLDGTDADTLMRGRVIGLEMEDLRQIPNVVAMASESRKALSIMGALRTGVIDVLATSVSCAMALLNLAENEE”, which protein production is on record?
Its protein production is “not failed”.

With “MTNERVMQLIREAYEKNLTTLDLSENQLTQLPSEITELKNLTTLNLSGNQLTQLPSEIGELKSLTSFDLSVNQLTQLPPEIGELKNLTILNVYRNQLIQLLPEITELKNLTTLDLSLNKLTQLPPLEHHHHHH” as the sequence, how does the protein production read?
The protein production was “failed”.

With “MTNLGDLEIFARVVSTGSMSAAGRALGFSAAVISKRIKRLEDRLGARLLQRTTRQISLTEAGQGFYDRVLGILAGLEEAEAYASGRSSQVQGTLRISAPTSFGRMHIAPHLTGFMKDHPDLKLHIVLTDDFTDIVAEGFDLAIRIGELSDSSLVARKLAPVRRLLCAAPSYVARHGAPTEIGELAKHICLPAHNNDNWKLEGPDGSLSYRPEGPLVTNSSEIIREAVIAGAGIALRSTWDIGRELREGRLVQVLPQWEGSHKLTLSAVYPSRQFLPAKVRQFIDYLAALYGPVPYWEQ” as the sequence, how does the protein production read?
Its protein production is “failed”.

For “MTNLISGSSYPTANLYFMQVWKIECWLRAHEFSVDETICQMVEIMTLKFEKYWEEYSDILAIAAVFDPRLKLKCLEYCFSTLDRLTSKSRLAHVRSKIYKLFKAYKKRPSSITSSSQVETLEEDIPAGYSGFYAFVSQKVGSSGKSELDIYLGEPTLDMAAFRHFNVLAYWKDNSCRFKELSSMACDVLSIPITTVASESSFSIGSGVLSKYRSSLLPENIQALICTRNWLRGFPKEGEEEEVEEEKEEEKEEEKEEA”, which protein production is on record?
Its protein production is “failed”.

With “MTNNPLGRIIPQQPPIEPQSDAHVLKSRLEWGEPAFTILDVRDRSTYNDGHIMGAMAMPIEDLVDRASSSLEKSRDIYVYGAGDEQTSQAVNLLRSAGFEHVSELKGGLAAWKAIGGPTEGIIESRTPAGADDYNVVSRMQNHLENQKKEV” as the sequence, how does the protein production read?
The protein production was “failed”.

With “MTNTPRQGATLAVLIDADNAAPAIVEGLLAEVAKYGVAAVKRIYGDWTRPNLSGWKDRLLAHSIQPIQQFRYTVGKNATDSAMIIDAMDLLYTGRFDGFCIVSSDSDFTRLASRIREQGLTVYGFGERKTPKPFVTACDKFIYSDVLRADADSDSDSETGSAPARKRTTQELRQDSRLVRLLQSASQAVSDEDGWSTLGGIGNYIAKQAPEFDSRNYGYGKLSELVTATNLFEVETRNGGNNKTLWVRLKKRNKGEGGGQPQPAQPQQQQQPQQQGQSSQPSQSQQPSQQAQPQQQRPAPAPARPVQPAPEPVAVIPATEPARVTEEEDDDAAGSASTLIQEAVEVSTERPKAGGKRGKRPDVTLSDTPWPIDQSVFSAPGATVLSAQVDVPEETKAAAPAEEAKKPAKKKPAAKKAAPRKRAPAKKAAAAE” as the sequence, how does the protein production read?
The protein production was “failed”.

For “MTNVRVIKPALAALVAAAACVGGLAFSSAQPAQADTYSDLINAQNQHAASVQREAELKQQLAGASQDLANKVLELDDLTNNKIVAAQAKVTQANEDAATAQDEADAASGRLSAAQKDKETLEEQIKQTGKDYDDAHAAVAQLARDEMHGSNASDVMSVVTGATSTQDFVNSMQSRDALSRNEANAASSAATSLSTSKNRGERLAAIEKQIAVLKTQSDEKAASAQTAAETAQSERDALDKLRQEGETRRNELSSMVDSLDSQSAKQAAQTVLIASQVDSYNRQFQKEQQDAANRVDTGNQGGTPSTPVTPAPAPAPAPAPAPAPAPAPAPSVGGQGTSNGDYGNAYAAGQCTYWAYERRRQMGIGTPSYLGNGGFWWRSAPAYGLRVDHTPQVGAALSFLPGQDGADGTYGHVAVVEAVYGDGTFQISEMNWGGPWNMHYRTLTNLGQYWFVH”, which protein production is on record?
The protein production was “failed”.
